Read-outs that look alike come from different tables or passages of the source.
B1: CYP3RNA: 791 bp dsRNA complementary to all three Fg CYP51 genes, from stacked clone CYP51B-CYP51A-CYP51C; SEQ ID NO:7 (nucleic acid)
DNA: CAGCAAGTTTGACGAGTCCCTGGCCGCTCTCTACCACGACCTCGATATGGGCTTCACCCCCATCAACTTCATGCTTCACTGGGCCCCTCTCCCCTGGAACCGTAAGCGCGACCACGCCCAGCGCACTGTTGCCAAGATCTACATGGACACTATCAAGGAGCGCCGCGCCAAGGGCAACAACGAATCCGAGCATGACATGATGAAGCACCTTATGAACTCTCCATGGCGGCCGCGGGAATTCGATATCGGTCCATTGACAATCCCCGTCTTTGGTAGCGATGTCGTATACGATTGTCCCAACTCGAAGCTCATGGAACAAAAGAAGTTTGTCAAGTTTGGCCTTACGCAAAAAGCACTCGAGTCACACGTCCAGTTAATCGAGCGAGAGGTTCTTGACTACGTCGAAACTGATCCATCCTTTTCTGGCAGAACTAGCACCATCGATGTCCCCAAGGCAATGGCTGAGATAACAATCTTTACTGCCTCACGTTCTTTGCAGGGTGAGGAAGTTCGGAGAAAACTCACTGCCGAGTTTGCTGCCACTAGTATTGGAAGCACCGTACAATATGGCATCGACCCGTACGCTTTTTTCTTCGACTGCAGAGATAAATACGGCGACTGCTTTACCTTTATTCTCCTTGGCAAATCAACGACTGTCTTTCTTGGTCCCAAGGGCAATGACTTTATCCTCAACGGCAAACACGCCGATCTCAACGCCGAGGACGTTTATGGGAAACTTACCACGCCCGTGTTTGGTGAGGAGGTTGTTTATGACTGCTCCAATG
modifications: combines partial sequences of Fusarium graminearum CYP51B-CYP51A-CYP51C

Key:
[1] = tested on: Fusarium graminearum (Fg) macroconidia; assay type: cell-based; settings: for Morphology of Fg macroconidia (microscopic analysis): 1.5 μg dsRNA per 100 macroconidia in 100 μl SNA medium
CYP51A = assay type: cell-based, Fusarium graminearum; settings: 72 hpt; normalized to beta-tubulin
CYP51B = assay type: cell-based, Fusarium graminearum; settings: 72 hpt; normalized to beta-tubulin
CYP51C = assay type: cell-based, Fusarium graminearum; settings: 72 hpt; normalized to beta-tubulin
[2] = tested on: Fusarium graminearum (Fg) macroconidia; assay type: cell-based; settings: 0 hpt and 72 hpt; dose dependent, 75 μg to 1 μg dsRNA
GFP-expressing Fg strain = assay type: in vivo, Fusarium graminearum on Arabidopsis thaliana Col-0; settings: 3 dpi; CYP3RNA-expressing leaves
Fg CYP51A = assay type: in vivo, Fusarium graminearum; settings: 3 dpi; average of lines L1, L8, L10, L11 vs ev control line
Fg CYP51B = assay type: in vivo, Fusarium graminearum; settings: 3 dpi; average of lines L1, L8, L10, L11 vs ev control line
Fg CYP51C = assay type: in vivo, Fusarium graminearum; settings: 3 dpi; average of lines L1, L8, L10, L11 vs ev control line
[3] = tested on: siRNAs corresponding to the targeted CYP51 sequences; test: Northern analysis of siRNAs in Arabidopsis leaves with CYP3RNA as probe; design: species or system Arabidopsis thaliana; settings: Fg-infested and uninfested leaves from CYP3RNA-expressing plants
Description: For detecting siRNA, total RNA was extracted from the Arabidopsis lines using TRIzol reagent (Invitrogen) following the manufacturer's protocol. A total of 15 μg total RNA was separated in a 16% polyacrylamide-7 M urea gel, and transferred onto Hybond Nylon membrane (Amersham, UK) using a semidry blotter (BioRad) at constant current (250 mA) for 3 h. The RNA was UV-cross-linked to the membrane at 1200×100 μjoules (UV Stratalinker) energy. The membrane was pre-hybridized for 45 min at 42° C. in 20 ml PerfectHyb-Puffer (Sigma). The complete 791 bp CYP3RNA PCR amplicon was used as a template for random labeling (Random Primer DNA Labeling with Kit, NEB), added to the hybridization buffer, and hybridized overnight at 42° C. The membrane was washed twice at room temperature with 5×SSC+0.01% SDS. The membrane was exposed on phosphorimaging screens (Bio-Rad) and signals were detected using a molecular imager and the Quantity One software (BioRad). A parallel loading of low range RNA marker (Fermentas) was used as size marker.
It was further assessed whether this reduction in Fg CYP51 transcripts was associated with the production of corresponding siRNAs. In Northern analyses using CYP3RNA as the probe, siRNAs corresponding to the targeted CYP51 sequences in both Fg-infested and uninfested leaves from CYP3RNA-expressing plants were detected (FIG. 8). […]

[4] = tested on: Fusarium graminearum (Fg); assay type: in vivo, Fusarium graminearum on barley cultivar Golden Promise; settings: 6 days after inoculation
[5] = tested on: Fusarium graminearum (Fg); assay type: in vivo, Fusarium graminearum on barley; settings: upper part sprayed, lower part inoculated after 2 days; 6 days after inoculation
[6] = tested on: Fusarium graminearum (Fg); settings: 3 dpi

| Molecule | Phenotype of Fg macroconidia ([1]; tebuconazole 5 mg/l, 72 h post treatment) | Morphology of Fg macroconidia (microscopic analysis) ([1]; 48 h post treatment) | Morphology of Fg macroconidia (microscopic analysis) ([1]; 72 h post treatment) | CYP51A transcript level vs mock control (CYP51A) | CYP51B transcript level vs mock control (CYP51B) | CYP51C transcript level vs mock control (CYP51C) | Fungal growth (optical densities of Fg cultures at 600 nm) [2] | Fungal growth on intact leaves (GFP fluorescence) (GFP-expressing Fg strain) | Reduction of relative transcript level of Fg CYP51A (Fg CYP51A) [%] | Reduction of relative transcript level of Fg CYP51B (Fg CYP51B) [%] | Reduction of relative transcript level of Fg CYP51C (Fg CYP51C) [%] | siRNAs corresponding to the targeted CYP51 sequences [3] | Relative amount of fungal DNA (qPCR, normalized to plant ubiquitin DNA) ([4]; vs infected control leaves) | Fungal growth on sprayed leaves (infection symptoms) ([4]; dsRNA 20 ng/μl sprayed 48 h before inoculation, vs buffer or GFP-dsRNA) | Fungal growth at sprayed upper and unsprayed lower leaf area (relative amount of fungal DNA) [5] | Reduction of fungal mycelium formation on leaves (trypan blue microscopy) ([6]; CYP3RNA-expressing leaves vs Col-0 ev control) [%] | Disease symptoms on detached leaves ([6]; T2 lines L1, L8, L10, L11, 5×10^4 Fg macroconidia per ml) | Percentage of infested leaf area ([6]; four transgenic lines, ev controls 77%) [%] |
| --- | --- | --- | --- | --- | --- | --- | --- | --- | --- | --- | --- | --- | --- | --- | --- | --- | --- | --- |
| CC(C)(C)C(O)(CCc1ccc(Cl)cc1)Cn1cncn1 (stereo not drawn) [tebuconazole, reference compound] | phenotype comparable to that elicited by CYP3RNA treatment |  |  |  |  |  |  |  |  |  |  |  |  |  |  |  |  |  |
| B1 |  | swelling of hyphal tips | morphological changes had become more pronounced | significantly reduced | significantly reduced | significantly reduced | strongly inhibited | restricted to the inoculation site | 92 | 89 | 77 | detected | significantly lower | significant inhibition of fungal growth | observed not only at the CYP3RNA-treated upper leaf area but also at the lower leaf area | ~100 | no disease symptoms | 0.9 |

From patent US11441147B2 (priority 2013, dated 2022)
